Data taken from article PMC3590194.

Tested on: bivalirudin (Angiomax), TMR-labeled (synthetic)
Assay: fluorescence anisotropy
Settings: 5 mM Mg2+?; BB = PBS (no MgCl2/CaCl2) with 5 mM MgCl2 (flow cytometry, 1 h incubation; FA buffer not stated in the material); pH and binding temperature not stated

| Sequence | Kd [µM] |
| --- | --- |
| ATCGTCTGCTCCGTCCAATACGTAACATCCCCGTAATACTACTACGGTCGTGCTGGTTTGGTGTGAGGTCGTGC [JPB2] | 5.99 |
| ATCGTCTGCTCCGTCCAATATATTGTGTGACCCCCCTCTTGTTTTGGTGTGAGGTCGTGC [JPB5] | 5.76 |
